US20240261333A1 (published 2024)

How the values were obtained:
Assay in all cases: co-IP with mouse anti-FLAG from lysate of cells overexpressing N-FLAG B3GNT2, then mass spectrometry
KHDRBS1 = biological target: T1, KHDRBS1 (human, UniProt Q07666 1-443)
T1 construct: Identified by mass spectrometry in the co-IP; also called NP_006550.1
Description: (§1) Cells were plated in 10-cm cell culture dishes and grown to 60-80% confluency. For each condition, two biological replicates were harvested for co-IP. Cells were washed with PBS and 4 mL of lysis buffer (20 mM HEPES, 1% Triton X-100, 150 mM NaCl, 1 mM EDTA, and 10% glycerol) containing protease inhibitor cocktail was added. Cells were scraped and lysate was incubated at 4° C. under rotary agitation for 1 h. Lysate was centrifuged at 14,000×g for 10 min at 4° C. Supernatant was transferred to a new tube and an aliquot was taken as the input. […] For Western blots, 10 μg/mL Chicken Anti-FLAG (Aves labs ET-DY100) and IgY control (R&D Systems AB-101-C) antibodies were biotinylated (Thermo Fisher Scientific 90407) and added to the respective conditions. Lysates with antibodies were incubated at 4° C. under rotary agitation overnight. For each mL of lysate, 50 μL of Pierce Protein A/G Magnetic Beads (Mass spectrometry; Thermo Fisher Scientific 88803) or Pierce Streptavidin Magnetic Beads (Western blot; Thermo Fisher Scientific 88817) was washed twice with lysis buffer. Lysates with antibodies were added to the beads and incubated at 4° C. under rotary agitation for 4 h. Beads were washed with lysis buffer 3 times and resuspended in lysis buffer for storage.
(§2) Magnetic beads were resuspended in 100 mM Tris pH 7.8, reduced, alkylated and digested with trypsin at 37° ° C. overnight. This solution was subjected to solid phase extraction to concentrate the peptides and remove unwanted reagents followed by injection onto a Shimadzu HPLC with fraction collector. Eight fractions were collected and after concentration were injected on a Waters NanoAcquity HPLC equipped with a self-packed Aeris 3 μm C18 analytical column 0.075 mm by 20 cm, (Phenomenex). Peptides were eluted using standard reverse-phase gradients. The effluent from the column was analyzed using a Thermo Orbitrap Elite mass spectrometer (nanospray configuration) operated in a data dependent manner for 54 minutes. The resulting fragmentation spectra were correlated against the known database using Proteome Discover 1.4 (Thermo Fisher Scientific).

ANXA2 = biological target: T2, ANXA2 (human, UniProt P07355-2 1-357, limits assumed)
T2 construct: Identified by mass spectrometry in the co-IP; also called NP_001002858.1 (+1)
Description: as §1, §2

TAF15 = biological target: T3, TAF15 (human, UniProt Q92804-2 1-589, limits assumed)
T3 construct: Identified by mass spectrometry in the co-IP; also called NP_003478.1 (+1)
Description: as §1, §2

CAPRIN1 = biological target: T4, CAPRIN1 (human, UniProt Q14444 2-709)
T4 construct: Identified by mass spectrometry in the co-IP; also called NP_005889.3 (+1)
T4 sequence (looked up): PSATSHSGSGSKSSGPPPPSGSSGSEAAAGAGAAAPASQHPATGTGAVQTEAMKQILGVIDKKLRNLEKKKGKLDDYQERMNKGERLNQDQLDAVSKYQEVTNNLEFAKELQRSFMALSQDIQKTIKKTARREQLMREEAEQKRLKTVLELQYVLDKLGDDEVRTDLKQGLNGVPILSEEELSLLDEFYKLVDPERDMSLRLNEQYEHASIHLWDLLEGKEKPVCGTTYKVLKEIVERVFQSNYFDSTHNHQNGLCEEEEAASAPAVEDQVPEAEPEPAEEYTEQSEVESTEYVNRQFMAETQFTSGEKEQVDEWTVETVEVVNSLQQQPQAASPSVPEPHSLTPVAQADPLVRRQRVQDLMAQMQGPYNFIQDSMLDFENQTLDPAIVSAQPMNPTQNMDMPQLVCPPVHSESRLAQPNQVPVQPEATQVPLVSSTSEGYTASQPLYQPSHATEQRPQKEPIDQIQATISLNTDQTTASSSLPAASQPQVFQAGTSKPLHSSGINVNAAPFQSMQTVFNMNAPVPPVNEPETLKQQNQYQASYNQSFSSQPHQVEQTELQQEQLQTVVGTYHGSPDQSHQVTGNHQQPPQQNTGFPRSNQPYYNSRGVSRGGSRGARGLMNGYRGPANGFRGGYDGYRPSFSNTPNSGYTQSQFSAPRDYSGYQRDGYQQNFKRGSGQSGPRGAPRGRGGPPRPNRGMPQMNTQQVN
Description: as §1, §2

TFAM = biological target: T5, TFAM (human, UniProt Q00059 43-246)
T5 construct: Identified by mass spectrometry in the co-IP; also called NP_003192.1
T5 sequence (looked up): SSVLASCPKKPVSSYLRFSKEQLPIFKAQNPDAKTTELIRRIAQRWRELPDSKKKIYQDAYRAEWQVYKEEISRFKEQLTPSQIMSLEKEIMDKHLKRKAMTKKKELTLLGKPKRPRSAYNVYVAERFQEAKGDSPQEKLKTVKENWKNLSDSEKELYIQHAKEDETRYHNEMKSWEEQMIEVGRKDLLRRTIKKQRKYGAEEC
Description: as §1, §2

MAGED2 = biological target: T6, MAGED2 (human, UniProt Q9UNF1 2-606)
T6 construct: Identified by mass spectrometry in the co-IP; also called NP_803182.1
T6 sequence (looked up): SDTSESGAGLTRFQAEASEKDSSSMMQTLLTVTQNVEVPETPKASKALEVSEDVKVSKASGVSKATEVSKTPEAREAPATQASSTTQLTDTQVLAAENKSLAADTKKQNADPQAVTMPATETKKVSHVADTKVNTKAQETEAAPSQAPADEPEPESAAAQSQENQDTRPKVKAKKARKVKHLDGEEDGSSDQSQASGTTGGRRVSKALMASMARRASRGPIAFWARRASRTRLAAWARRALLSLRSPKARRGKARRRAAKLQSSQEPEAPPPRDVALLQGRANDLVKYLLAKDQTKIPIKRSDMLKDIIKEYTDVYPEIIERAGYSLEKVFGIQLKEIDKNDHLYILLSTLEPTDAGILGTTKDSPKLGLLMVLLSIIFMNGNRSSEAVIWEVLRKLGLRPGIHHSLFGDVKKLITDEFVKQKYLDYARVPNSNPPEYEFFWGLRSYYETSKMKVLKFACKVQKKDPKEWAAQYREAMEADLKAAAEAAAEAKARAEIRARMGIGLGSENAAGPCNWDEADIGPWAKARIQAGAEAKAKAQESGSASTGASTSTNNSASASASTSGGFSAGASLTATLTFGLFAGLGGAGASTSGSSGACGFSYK
Description: as §1, §2

T2 sequence (P07355 other isoform, or with tags, fused parts or gaps limits assumed): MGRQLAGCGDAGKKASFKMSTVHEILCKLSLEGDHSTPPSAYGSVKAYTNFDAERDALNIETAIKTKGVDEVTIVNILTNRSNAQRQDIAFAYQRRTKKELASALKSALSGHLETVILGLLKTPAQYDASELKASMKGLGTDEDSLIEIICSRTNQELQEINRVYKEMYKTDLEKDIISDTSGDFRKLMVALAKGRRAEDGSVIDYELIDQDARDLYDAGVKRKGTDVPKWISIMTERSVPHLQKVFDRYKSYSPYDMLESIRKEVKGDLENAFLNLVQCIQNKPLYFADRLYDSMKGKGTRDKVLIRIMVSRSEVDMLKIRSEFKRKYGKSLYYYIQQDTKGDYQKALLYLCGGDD
T1 sequence (Q07666 whole entry): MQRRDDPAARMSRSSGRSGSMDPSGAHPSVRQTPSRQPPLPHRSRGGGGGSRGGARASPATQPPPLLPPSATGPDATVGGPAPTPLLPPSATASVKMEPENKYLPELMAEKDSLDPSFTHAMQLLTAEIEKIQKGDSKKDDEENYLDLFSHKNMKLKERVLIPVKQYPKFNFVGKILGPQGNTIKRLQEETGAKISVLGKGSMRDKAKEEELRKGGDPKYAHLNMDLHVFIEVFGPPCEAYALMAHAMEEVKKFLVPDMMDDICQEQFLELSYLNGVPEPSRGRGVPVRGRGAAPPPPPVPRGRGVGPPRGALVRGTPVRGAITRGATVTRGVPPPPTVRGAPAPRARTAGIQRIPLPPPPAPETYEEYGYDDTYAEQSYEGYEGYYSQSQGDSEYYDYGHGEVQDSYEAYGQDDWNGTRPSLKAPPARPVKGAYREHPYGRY
T3 sequence (Q92804 other isoform, or with tags, fused parts or gaps limits assumed): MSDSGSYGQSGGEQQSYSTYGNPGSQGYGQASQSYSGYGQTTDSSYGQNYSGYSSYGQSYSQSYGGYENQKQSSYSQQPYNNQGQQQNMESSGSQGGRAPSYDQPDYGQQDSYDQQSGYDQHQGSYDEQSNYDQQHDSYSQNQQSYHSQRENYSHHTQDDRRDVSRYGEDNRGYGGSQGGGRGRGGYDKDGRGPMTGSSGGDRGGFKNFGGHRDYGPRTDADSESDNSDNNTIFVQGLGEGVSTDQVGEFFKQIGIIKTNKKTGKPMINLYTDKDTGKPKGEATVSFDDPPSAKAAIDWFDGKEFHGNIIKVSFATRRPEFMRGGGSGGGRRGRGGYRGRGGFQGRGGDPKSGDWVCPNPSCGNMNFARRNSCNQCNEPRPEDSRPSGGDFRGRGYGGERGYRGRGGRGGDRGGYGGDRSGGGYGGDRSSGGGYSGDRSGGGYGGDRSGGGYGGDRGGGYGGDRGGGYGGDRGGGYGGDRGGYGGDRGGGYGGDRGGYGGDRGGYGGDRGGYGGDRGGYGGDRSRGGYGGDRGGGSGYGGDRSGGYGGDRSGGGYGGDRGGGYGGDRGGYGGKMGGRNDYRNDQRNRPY

co-IP mass spectrometry count (N-term FLAG) (KHDRBS1): 9 | co-IP mass spectrometry count (N-term FLAG) (ANXA2): 17 | co-IP mass spectrometry count (N-term FLAG) (TAF15): 5 | co-IP mass spectrometry count (N-term FLAG) (CAPRIN1): 7 | co-IP mass spectrometry count (N-term FLAG) (TFAM): 0 | co-IP mass spectrometry count (N-term FLAG) (MAGED2): 0
B1: N-terminal FLAG tagged B3GNT2 (enzyme, human, UniProt Q9NY97 1-397, looked up)
chain: MSVGRRRIKLLGILMMANVFIYFIMEVSKSSSQEKNGKGEVIIPKEKFWKISTPPEAYWNREQEKLNRQYNPILSMLTNQTGEAGRLSNISHLNYCEPDLRVTSVVTGFNNLPDRFKDFLLYLRCRNYSLLIDQPDKCAKKPFLLLAIKSLTPHFARRQAIRESWGQESNAGNQTVVRVFLLGQTPPEDNHPDLSDMLKFESEKHQDILMWNYRDTFFNLSLKEVLFLRWVSTSCPDTEFVFKGDDDVFVNTHHILNYLNSLSKTKAKDLFIGDVIHNAGPHRDKKLKYYIPEVVYSGLYPPYAGGGGFLYSGHLALRLYHITDQVHLYPIDDVYTGMCLQKLGLVPEKHKGFRTFDIEEKNKNNICSYVDLMLVHSRKPQEMIDIWSQLQSAHLKC
notes: FLAG-tagged ORF overexpressed in A375 cells; bait of the co-IP with mouse anti-FLAG; also called N-FLAG B3GNT2; N-term FLAG; not shown: N-terminal FLAG tag
